Target: PD-1-mFc (人PD-1胞外区加Fc纯化标签) (human) (UniProt Q15116)
Test: ELISA of the subclone's supernatant on plate-coated PD-1 antigen

UniProt Q15116, sequence (Q15116 25-170): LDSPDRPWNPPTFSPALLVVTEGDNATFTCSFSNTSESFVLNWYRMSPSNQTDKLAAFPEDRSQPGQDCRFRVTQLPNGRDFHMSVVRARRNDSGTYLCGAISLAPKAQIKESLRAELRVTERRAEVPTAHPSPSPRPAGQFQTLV

B1: 抗PD-1鼠源单克隆抗体 (阳性克隆2G8-1N8) (antibody, V domains shown)
VH: EVKLVESGGGLVKPGGSLKLSCAASGFTFSSYGMSWVRQTPEKRLEWVATISGGGSYTYYPDSVKGRFTISRDNAKNNLYLQMSSLRSEDTALYYCASRFGEAWFAYWGQGTLVTVSA
VL: DIKMTQSPSSMYASLGERVTITCKASQDINSYLSWFQQKPGKSPKTLIYRANRLVDGVPSRFSGSGSGQDYSLTISSLEYEDMGIYYCLQYDEFPLTFGAGTKLELK
OD值: 1.02 OD

Reference: CN110563849A
